One may read the Kd as the free concentration of one partner at which half of the binding sites on the other are occupied at equilibrium, for simple one-to-one binding. As usually defined, the EC50 is the concentration that produces a half-maximal response. A lower EC50 goes with a more potent agent. One may read the IC50 as the midpoint of a concentration-inhibition curve. A lower IC50 goes with inhibition by little substance.

Here are results for 3 molecules from patent US20130323248A1 (published 2013).

Assay [1] concerns the target T1, recombinant human DLL4 (rhDLL4) (human, UniProt Q9NR61 27-524). The assay can be described thus: Biacore SPR. (Surface plasmon resonance follows binding to a sensor surface in real time, without labels.)
The target in assay [2] is T1, recombinant human DLL4 (rhDLL4). As to the kind of experiment: Biacore SPR. The source holds these as a separate data set.
For assay [3], the target named is T2, human DLL-4 expressed on the surface of CHO-K1 cells (CHO-DLL-4 cells) (human, UniProt Q9NR61 27-685). As to the kind of experiment: flow cytometry.
Assay [4] addresses T2, human DLL-4 expressed on the surface of …. The assay can be described thus: flow cytometry blocking of soluble Notch-1 binding.

B1: anti-DLL-4 antibody G6 (antibody, V domains shown)
VH: EVQLVESGGSLVQPGGSLRLSCAASGFTFSNGWMTWLRQAPGKGLEWVATIKPDGSDTAYVESVKGRFTISRDNAKNLLYLQMDSLRGDDTAVYFCARDLAYNAFDIWGQGTMVTVSS
VL: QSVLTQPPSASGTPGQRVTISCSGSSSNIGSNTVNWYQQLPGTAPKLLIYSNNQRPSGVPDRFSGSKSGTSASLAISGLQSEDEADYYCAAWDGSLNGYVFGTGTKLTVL
For B1, in assay [1], the dissociation constant Kd came to 1.15 nM. Moreover, the Ka in assay [2] was 8.72e+08 M⁻¹. This molecule also showed a concentration giving a half-maximal response (EC50) in assay [3] of 0.305 nM. Moreover, the IC50 in assay [4] was 0.286 nM.

B2: anti-DLL-4 antibody C3 (antibody, V domains shown)
VH: QVQLVQSGSELKKPGASVKVSCKASGYTFTSYYMHWVRQVPGQGLEWMGIINPSGGSTSYAQKFQGRVTMTRDTSTSTVYMELSSLRSEDTAVYYCATDYYDSSGYVDFDYWGQGTLVTVSS
VL: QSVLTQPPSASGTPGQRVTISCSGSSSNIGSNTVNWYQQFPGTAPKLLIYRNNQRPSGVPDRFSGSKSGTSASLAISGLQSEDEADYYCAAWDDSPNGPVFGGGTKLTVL
In the case of B2, in assay [1], the Kd came to 0.884 nM. Also, in assay [2], the Ka was found to be 1.13e+09 M⁻¹. In assay [3], this molecule yielded an EC50 of 0.107 nM. In addition, the IC50 in assay [4] worked out at 0.364 nM.

B3: anti-DLL-4 antibody C10 (antibody, V domains shown)
VH: QVQLVESGAEVKKPGASVKVSCKASGYTFTSYYMHWVRQAPQGLEWMGIINPSGGSTSYAQKFQGRVTMTRDTSTNTVYMELSSLRSEDTAVYYCARDVWGGYFDYWGQGTLVTVSS
VL: QSVLTQPASVSGSPGQSITISCTGTSSDVGGYNYVSWYQQHPGKAPKLMIYDVTNRPSGVSNRFSGSKSGNTASLTISGLQAEDEADYYCSSYTSSSTVIFGGGTKLTVL
Turning to B3, the equilibrium dissociation constant (Kd) in assay [1] was 1.18 nM. Further, the Ka in assay [2] is 8.49e+08 M⁻¹. This molecule showed a concentration for a half-maximal effect (EC50) in assay [3] of 0.216 nM. The molecule also had an IC50 in assay [4] of 0.676 nM.
